# Experiment: label from the status in PepcDB records
row,Sequence,protein production
1,MVNFEEMTFENIMESMLDAVPATLDKREGSMIWNSLAPAASQIALLYTWLENAFELVFYDTAPDEFLDRAAAPYGVIRKPAVATQRIIKGIDENDNKIEIPEGSRFFVESENIYFKVTSSTILEQVVECEVAGTKGNADFSNDTILSLDNIYGLAKVEIGDILIPGSDEEELETFRKRFFTKIQKDAFSGNKNHYKLWAEEVLGVGKAKIYPLGYGEGTVKIVITDTNLHPASPTLVEQVRNYIDPLPQKGEGVAPIGAKVFIESAAWKTINISGQLVLKDGKSVNDVIEEITMDINKLFKSITFPEDELTSVKLAVISNIIFSAPSVLDNFNIKLNNEAANIILAENEVPQLGAFSFELILEHHHHHH,failed
2,MGVPEINEYGQQVNDLVPGWQGAQVLRRTALNGRFCRLEPLDVDRHAADLFAAYALGDNSDWTWLASTRPESVTATAHWIAGKVNDDVLVPYAVVDLRSEQAVGIVSYMAIEREMGTVEIGHVTWSRRMKNTPLGTEAVWLLLKNGFDHGYRRLEWKCDSMNVASRRAAERLGFSWEGRLRQRLVRKGRTRDSDMLSIIDGEWPARDAALRAWLAAENFTADGQQIKRLEAFR,failed
3,MSRILITGAAGMVGRALLEELDEHDVFATDLVPPKATGAVTWLPMDVTTDDPDRIVGEVRPQVVIHLASIVTPGVARAVAHRVDVGGTRAVLDACLAHGVRRLVVTSSGAAYGYHADNPMPLRESDPLRGNPEFAYADHKRQVEEILAEARQSAPQLEQVVLRVGTVLGAGTENQITALFRKPRLLAVRGSESPFVFIWTRDLARILARAAGEGPAGIYNVAGDGAMGVSDLARALGKPVLRLPALTLKAALALARPLGLSRYGPEQVRFLQYRPVLANDALKQVFGYVPELASAEVFDLWRREAGL,failed
4,LRESEARLKGIAGNVPGLVFRLERDPAEGDLEFPYISEGSEALVGYAPSEIQHPQMGLRNLVHPEDRADYHRVQDLALASDQDWSWQGRILTRQGEQRWADIKASARHLGNGQVVWDGVVWDITQGKRAELALAKSQEQLRELSAHLESVREEEKARIAREVHDELGQM,not failed
5,MTIAPTTLLLFAATALAELVGCYLPYLWLRKGGSVWLLLPTALSLAVFVWLLSLHPEASGRVYAAYGGVYIASALLWLWWVDGVTPTRWDLLGAACCLLGMAVIMFSPRSA,failed
6,MSDSIVGIPREDHQTFLYNPFTSQRYELPPLTIEDPHLKSVLRYGVLTGDPREDNTYACLVADSLHANLMAIGNTHPPSLHLYYVAKRNGEWDQNWSVTRIPTHNLPVVGSTIDSISPSADKISIIGWGHSFDFTFQSQDWNVTNINYTMEWNPFHGQSFDQIKHRLQIDPQTLDIIGTKTDRERVKNRIWFVINQIISHIDGVWVEVRA,failed
7,NNLFVYCEIEDGIVADVSLELLTKGRSLANQLGCQLEAVVAGTGLKDIEKQILPYGVDKLHVFDGEGLYPYTSLPHTSILVNLFKEEQPQICLMGATVIGRDLGPRVSSALTSGLTADCTSLEIGDHEDKKEGKVYKNLLYQIRPAFGGNIVATIVNPEHRPQMATVREGVMKKAILAADYKGEVIHHDVKKYVADTDYVVKVIERHVEKAKNN,failed
8,MRLKPLPSRPLLGGVLFFALVFAFAGINPWGGGHEGVWNAPREGGMALFALAALAGVLLERRGRGLSVGGGALLALLASAGFLLAGAASTLLSPQPIWSWTGYPSVGDGLRFWALGVAFAWAVFLALETRVLSPRGLFGALLLALGLHALAVFPQVVDWKLDYTQTQGQTYVRCFDRERTDCYENPNATASGIYRGQMPIGLTSHRGHAAGVLALLGLVAAGLYLRSPRPGLLLLFGLGALALWFTQTRGGWLALWGTLALLALGLTWKRPGRLRPALALFLVGALSYGLYLALGQMGVQEPRRFPELGASFAEANAYSSGRLELWRKALAALPLRPWLGWGFDGYARASPHAVDWNGEDRRFVPAALSLPVRLVQGEDRLFYLEDPTGLRLLAPAPYAKAHNLFLDLLLSVGVLGGAAYLLWLGAALRQASWAKLPFALAVAGYLLYGLTWYDSVHVTPLALLALGALVTREEVWRGA,failed
9,MMRKHFLSRSSLRAIVLCVSLGTLSAQAVSVPNAIAQSSLPASPLDSFYSSIPSGENTVAGTVLSEQVIPTGLLDATIKVKRIAYSSTHPSGRMVPTIATILTPTAPWTGSGPRPAALLAPGTQGAGDQCAPSKLITVGAEYELFPAIMLLRRGWTVAITDYQGLGTIGAHTYMNRKAQGAALLDLGRAVVNVKYPEVRKDAPLILWGYSQGGGASAAAAEMHASYAPDVNIRGGFAGGVPAELLATARSLEGSPLLGALGYAISGMYETHPELRLEVDDLLNDRGKQWIIDSGTHCLLDSFRTMPIPDSRVMTRSGQRLTDLLGSKVFHSYFEEQRLGKVAPDVPMFVSQGANDDIIPAQQARDMVSNWRDLGADVTYFEDPAPLLVRMEGHVRPLVTSFDPALQWAEKLLGSEVINPPSAS,failed
10,MELANKMLHALEHEDMALAKKYFDEVVQAGTDEEQYYLAEELFALGFLDETEDLYELLLAKYKDEGELLVRAAEVALEKDDMDAAQDYLEKVNKEDEAYIESLLVLADLYQMQGLFEVSEQKLLEAKQMAPNEPIIDFALGEYYLSQARFASAVQSYQTAVEAGLTIISNGAVSVYERIAEAFAASGAFEEALPYYERALEDKESVDTLFGMGLTAYQAKDYTKAIHALEHLREHDPSYTTLYSYLAKSYEENGEPEKAIAVLRDGLTQDEFNKEMFLEAGKLAVTLRLPEEAEEFYRQAIVLDEEFSEAIMQLNKLLLAKENYEGVIELVEGLGEEVISEPQIFWDVSVAYQETEQYNKAKANYELAYPHFTNNPTFLKEYGLFLREEGEHAKSQEVLRSYLELEPEDTEILSLFD,failed
11,MDIKSETEQYKRKAEIEKHTKEPNKHRDEAVLQNRAGRHRDRAVIDHKSEERERESVQNVTEMSGIERSEGEWSPPVEGITDEELPSHSPMDDLGFALFASWGRKTERQRMGSPDIRIYIFNPIKKIIIMETRIRFGLEWKPSGFGS,failed
12,MGAKGKFWILTMVVAISGLSQGVLLPLIAIILEEKGVSAGINGFHATGIYLGVLLVSPFIEAPLHKYGYKPIILVGGGLVAIAIFAFPIWFNLYFWFILRLLIGIGDHMLHFSSQTWIGAMSDPSKRGRNMAIYGLFFSVGFAIGPQLVNLAKVNANLPFFLSGILVLIAWSLVWFIRNDFVGEKAVIRKISFWGSIKRFSGVFKMAWVAMIPPFLYGILETGLNATFPVVGLRDGLDTMMIAMIISSFSVGTIIFQVPIGIISDKFGRDKMLPLLTGAGAVVFVLTAFVKIPIFFVIFFFILGILLGSLYSLGLSYMTDLTPLELLPAGNILVGMFFSLGSIIGPSATGMMIGIFGNQIFYFVVAGILLLGCLLLALGGRKEAH,not failed
13,MPKPLRCITIAFTDLPNEYKIVLGYLTYHSGRLFNQALYSIKTKQAKVNTYDLYNKLKDNSLHLKNLQSRCAQIVLDELVRAFKNWFEFLHNPEKFKGQEVKPPKFRPKNKPHRTITYDQTGFKVVGTKIRLSLSKALRQWLKEKHGIELKYLWLDTGLELDERLIKNIQIVPKANAKEFELHIIYEKPQNGEKLLKQDKVMVLDPNSSNFFAIVIEGIPQPYIIDGNGLKSLLRKYLKKIASLQSRLEGAKKKGFLTHFLEERISRLWLKVKRLLKHYAHTISNLILELALKYGVRKIYIGDAARNKNKESKLSSVADQIWSLLPHGKVKEYLEYKAKEYGIEVEYISEAYTSGVDSSVEGAVNKETYTPEARVKRGLFRTRLLGFLNADVNACRNLLKKLGKFDLISGILRPIRLRVFFKLRESSSAIPLYGGIGRSRGGVNLPVVVRHSKEGVNPPEAPHL,failed
14,MKGTFTNLLVLLLIALVCANVGARKLISEDTQFKDEKSFLGGGGSGDGLGLGLGGGAGLGGLGIGAGIGAGAGLGLGGGGGGLGGGGGGLLGGGGFGGGAGGGLGGLP,failed
15,MQEYIEFFKAHTLLSLAWVGLFVMLVVSVIKSSFSKIKNVTHQELTIMVNRQDAKVVDVRSNDDFRKGHIVGAVNVTLADIKNNQVSALEKFKGSPIILVCNAGMTSSQAAQLLSKQGFENLYNLKGGMGEWQAANMPVSKSKR,failed
16,CGGCGEDVVGDGAGVVALDRVFHVGCFVCSTCRAQLRGQHFYAVERRAYCEGCYVATLE,not failed
17,MDRSERLIQLISEEGIDAFLIMNIENSARASSVYFSGFTGSFSIILISENTRLLITDSRYTVQAKQETDFEVREVKGGDFIDVLKKTVNDLKIKTIALEEERVSLSLFRRISSAFGDRKFIGIDDEVKQMRMVK,failed
18,MSTTMKRQGCSSDSGDLRRQPSRLLKRPPALKIVPATPAANNWNTAIPLLSPLALSPESSPVDQPPVEKNQSTAVAVEKTPVFKKWQHPAAPFYYESSTFVPPFVPV,failed
19,MENTVQEARRYLSNAREILSEKAKKNGIYYNDIKYVKLAGRAAYSGVLVALDGLLGKKDTRKSVEWYQEKLGKVDKKALTAFNSAYKILHLSMAYDGIELVSVSKDGLKQAEALINWVETRTAAA,failed
20,MMIHMEYYLVVSTIMMFAGIYGFFTRRNTLAILISVELMLNATDINFAVFNRFLFPGELEGYFFALFSIAISAAETAIAIAIMINIYRNIRSIQVKNLDELKW,failed
21,PQPKIGILLANLGTPDNYDYWSMRRYLNEFLSDKRVIDYPAWKWQPLLQILILSKRPFSSGANYKLIWNHDKGESPLMTITKDQTAAIAAEIRSLYGNRVMVDFCMRYGNPSTESRVRAMVEAGCEKILFFPLYPHYAGATSATANDEFFRAMMKEKRQPAVRTVPEYYDNPLYIDALAQSVERAYAQLDHRPDVLVASYHGMPKRYLMAGD,failed
22,MNNKQLDFTEGSITKKMVVFSWPIFLSNLLQTSYQITDSLWVGNLLGASALGALSISATVVFMVLSFIIGLNGATLTVLSQRQGAKDEAGLKASLNAFVFVLGLLAILLGLIGYFSASSILQLLGTPEEILPLAESYLKINFIGILFLFGYNFIGTVLRAMGDSRSPVRFIFIAVILNIILDPLMIAGFNLGIDGAAYATIVSQGTAFIYGLIYSVRKAGVPFQIPYVPEKRYFFVLFKLGLPAGLSMITISAGVTAILSVVTSFGEEAVAGFGAAQRLDSLIMLPALTLGSAVNTIAGQNIGANKWERVRATAKQGVMLIIAVTLIIGLITFIGAQFFIRLFVRDEATVAFGAMYIQTIAFFYPFLGINFVLNGIVRASGAMFPVLLLNIISFWILRYPLTYWMSDLFGERGIALGMGFAFVVSSLIATGYYFLGNWRKVGEELAQKTGHSKV,failed
23,MAQTKRFVIAGGGRVGKQTAENLVDQGHDVLLIESDEERVEALSDAYIGPVIHGDATRPSILQQADLAEADAIAALTDEPGTNLAICMEAQQYAPSIRTIARAETEADHEYDEVVDATLLPEYLGGDHAADILTGEDIRTLVYPTADLDIIKVTVAPSAPVAGRRLDEIALPSGSLLISTADRTELAGADTVLKAEEQYILAVETDVVDEVLKLMRG,failed

# Reference: a protein production outcome set (Wang et al. 2014)
